Test results taken from publication PMC5571166, “Mapping the key residues of SufB and SufD essential for biosynthesis of iron-sulfur clusters” (Scientific Reports, 2017).
Changes are numbered by the printed parent chain. Each block holds one binder with its values, some of them ahead of it.

Key:
Assay in all cases: SEC; SufBCD complexes co-expressed in E. coli and co-purified on Phenyl FF, Q XL and Sephacryl S-200; eluted from gel filtration at about 160 kDa; subunit composition checked by SDS-PAGE of the purified sample
Conditions in all cases: both partners purified
SufB (wild type) = target: T1, SufB (wild type) (Escherichia coli, UniProt P77522 1-495)
T1 construct: SufB of the Escherichia coli sufABCDSE operon; Expressed from the cloned suf genes with no tag mentioned; The host is stated only for the variant complexes (YT2512, pGSO164-derived plasmid); One SufB per SufBCD complex (SufB:SufC:SufD 1:2:1); also called SufB subunit of the wild-type SufBCD complex; source: purified as the wild-type SufBCD complex; E. coli YT2512 (ΔsufABCDSE) from pBBR-sufAB, in …
T1 sequence: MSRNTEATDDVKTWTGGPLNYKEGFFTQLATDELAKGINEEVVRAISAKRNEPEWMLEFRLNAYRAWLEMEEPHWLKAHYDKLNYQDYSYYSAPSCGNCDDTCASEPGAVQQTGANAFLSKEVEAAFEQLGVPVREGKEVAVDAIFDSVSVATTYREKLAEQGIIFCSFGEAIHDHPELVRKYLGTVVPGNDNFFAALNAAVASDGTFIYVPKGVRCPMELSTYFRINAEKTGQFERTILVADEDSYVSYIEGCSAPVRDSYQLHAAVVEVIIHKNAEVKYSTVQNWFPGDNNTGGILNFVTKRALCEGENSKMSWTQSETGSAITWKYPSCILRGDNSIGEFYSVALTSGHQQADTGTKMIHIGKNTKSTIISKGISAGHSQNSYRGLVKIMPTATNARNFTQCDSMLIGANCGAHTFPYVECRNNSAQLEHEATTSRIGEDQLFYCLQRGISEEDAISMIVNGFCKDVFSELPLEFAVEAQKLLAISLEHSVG

SufB^W287A = target: T2, SufB^W287A (Escherichia coli, UniProt P77522 1-495, SufB^W287A)
T2 construct: SufB of the Escherichia coli sufABCDSE operon; source: pBBR-sufAB carrying the mutation, in bacterial extract
T2 sequence: T1 sequence with W287A

SufB^C254A = target: T3, SufB^C254A (Escherichia coli, UniProt P77522 1-495, SufB^C254A)
T3 construct: SufB of the Escherichia coli sufABCDSE operon; source: pBBR-sufAB carrying the mutation, in bacterial extract
T3 sequence: T1 sequence with C254A

SufB^N228A = target: T4, SufB^N228A (Escherichia coli, UniProt P77522 1-495, SufB^N228A)
T4 construct: SufB of the Escherichia coli sufABCDSE operon
T4 sequence: T1 sequence with N228A

- binding result (SufB (wild type)): binds
- binding result (SufB^W287A): binds
- binding result (SufB^C254A): binds
- binding result (SufB^N228A): binds
B1: SufC (natural protein, Escherichia coli)
chain: MLSIKDLHVSVEDKAILRGLSLDVHPGEVHAIMGPNGSGKSTLSATLAGREDYEVTGGTVEFKGKDLLALSPEDRAGEGIFMAFQYPVEIPGVSNQFFLQTALNAVRSYRGQETLDRFDFQDLMEEKIALLKMPEDLLTRSVNVGFSGGEKKRNDILQMAVLEPELCILDESDSGLDIDALKVVADGVNSLRDGKRSFIIVTHYQRILDYIKPDYVHVLYQGRIVKSGDFTLVKQLEEQGYGWLTEQQ
notes: SufC of the Escherichia coli sufABCDSE operon; also called SufC subunit of the SufBCD complex

- binding result (SufB (wild type)): binds
- binding result (SufB^W287A): binds
- binding result (SufB^C254A): binds
- binding result (SufB^N228A): binds
B2: SufD (natural protein, Escherichia coli)
chain: MAGLPNSSNALQQWHHLFEAEGTKRSPQAQQHLQQLLRTGLPTRKHENWKYTPLEGLINSQFVSIAGEISPQQRDALALTLDSVRLVFVDGRYVPALSDATEGSGYEVSINDDRQGLPDAIQAEVFLHLTESLAQSVTHIAVKRGQRPAKPLLLMHITQGVAGEEVNTAHYRHHLDLAEGAEATVIEHFVSLNDARHFTGARFTINVAANAHLQHIKLAFENPLSHHFAHNDLLLAEDATAFSHSFLLGGAVLRHNTSTQLNGENSTLRINSLAMPVKNEVCDTRTWLEHNKGFCNSRQLHKTIVSDKGRAVFNGLINVAQHAIKTDGQMTNNNLLMGKLAEVDTKPQLEIYADDVKCSHGATVGRIDDEQIFYLRSRGINQQDAQQMIIYAFAAELTEALRDEGLKQQVLARIGQRLPGGAR
notes: SufD of the Escherichia coli sufABCDSE operon; One SufD per SufBCD complex (1:2:1); also called SufD subunit of the SufBCD complex
